Source: paper PMC7466717, “PPARγ Transcription Deficiency Exacerbates High-Fat Diet-Induced Adipocyte Hypertrophy and Insulin Resistance in Mice” (Frontiers in Pharmacology, 2020)
Ends that are not written are not given here.

T1: H6-PPARγ CDE wild-type (human PPARγ, domains from DBD to the C-terminus, residues 103–477) (human, UniProt P37231-2 103-477)
T1 construct: Human PPARγ, CDE domains (DBD, hinge, LBD to the C-terminus), residues 103-477; a C-terminus at 477 fits the 477-residue PPARγ1 isoform; Expressed from pET24a as an N-terminal 6xHis fusion; also called H6-PPARγ CDE WT; PPARγ CDE WT; source: E. coli BL21(DE3), purified (Ni HiTrap HP, SP-Sepharose); not shown: His6, N-terminal, kept
T1 sequence (looked up): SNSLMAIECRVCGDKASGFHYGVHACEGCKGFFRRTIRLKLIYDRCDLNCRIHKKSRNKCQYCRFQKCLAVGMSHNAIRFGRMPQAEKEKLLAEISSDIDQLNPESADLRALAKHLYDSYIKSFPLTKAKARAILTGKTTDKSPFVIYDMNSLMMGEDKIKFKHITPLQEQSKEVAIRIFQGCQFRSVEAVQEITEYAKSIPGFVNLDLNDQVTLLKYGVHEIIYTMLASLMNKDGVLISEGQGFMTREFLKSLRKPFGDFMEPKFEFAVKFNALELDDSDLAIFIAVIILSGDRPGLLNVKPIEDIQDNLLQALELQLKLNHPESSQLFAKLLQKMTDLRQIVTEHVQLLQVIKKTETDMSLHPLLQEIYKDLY


Target: T1, H6-PPARγ CDE wild-type (human PPARγ, …)
Assay: AlphaScreen or HTRF; 100 nM H6-PPARγ CDE, 100 nM biotin-labeled peptide, gradient doses of rosiglitazone; hexahistidine detection kit (Perkin-Elmer); 50 mmol/L MOPS, 50 mmol/L NaF, 0.05 mmol/L CHAPS, 0.1 mg/ml bovine serum albumin, pH 7.4
Details: both partners purified

binding result | Binder
binds | GHSFADPASNLGLEDIIRKALMGSF (also: biotin label, position not given here, not the gene NCOR2/SMRT) [biotin-labeled NCoR-2 corepressor peptide]
binds | QEPVSPKKKENALLRYLLDKDDTKD (also: biotin label, position not given here) [biotin-labeled SRC2-3 coactivator peptide]
binds | SPSSHSSLTERHKILHRLLQEGSP (also: biotin label, position not given here) [biotin-labeled SRC1-2 coactivator peptide]
